The test system of this data set is Nc1nc2c(ncn2[C@@H]2O[C@H](COP(=O)(O)OP(=O)(O)OP(=O)(O)O)[C@@H](O)[C@H]2O)c(=O)[nH]1. The data set can be described thus: purified protein. Conditions: 59 nM GST-FlhFBb; GTP 0-100 μM; room temperature.

“rFlhFBb (BB0270, GST-FlhFBb) (Borreliella burgdorferi B31)”: the Km was 10.71 ± 2.08 µM, the Vmax is 113 µmol/min, the kcat was 0.0318 ± 0.00133 s⁻¹ and the kcat/Km is 2970 M⁻¹ s⁻¹.

By Km is commonly meant the concentration of substrate that gives half-maximal velocity. The term Vmax denotes the rate approached at saturating substrate. One may read the kcat as the maximal rate divided by the concentration of active sites. Broadly, the kcat/Km is the turnover number divided by the Michaelis constant.

Values taken from PMC8085991.
